B1: Myosin binding protein H-like (protein)
chain: MPAKPAPIKKAAPKEPAPKKEEAPAPAPAEAAPAEVAPPAEVEAPPAEAAPAEAAAPAEAAPTEEKAPAEPAPEQPKAPTPPPPDEPTSEPLEVTVDDKSDTSVTITWRPPKTIPANSGLDGYTVEITKEGTEDWKAANEDLTVSCRYVIKNQTTGDRLLIRVVAVNPGGRSPPATIADPVLVKEVGARPKVRLPRFLRQRYVKKVGEKINIVIPYSGKPKPVVSWLKDGQPLDSKRANIRTSDRDSILFIRQAERVDSGSYEMCVKVDDFEDKAAIIIQIIELPGPPASIKIVDVWGFNVALEWTVPKDNGNTEITGYTVQKADKKTGDWFNILEHYARLNATISDLIMGNTYTFRVFAENKCGLSEECAVTKGEATIVKEVIDYKPTPFVEHDFTEAPKFTTVLNDRSTTVGYSTKLLCSVRGCPKPKIMWMKNKMILNNMDNPKYRMISTGGICTLEIRKPGPYDGGEYVCRAENTLGKVDTGCKLEVRKPGQADADKDKKEQ
modifications: Myosin binding protein H-like
B2: Desmin (fragment) (protein)
chain: ISSYRRTFGSGIGSTPGMSSMFSHGGRGSSGSAHMSSRVYEMTKSSARPSYSSGSIRSSSGGAMRSYAGMGEKLDFNLADATNRDFLDTRTNEKAELQHLNDRFASYIEKVRFLEQQNATLVVEIERLRGHEPTRVAEMYEEEMRELRRQVDGMSNDRARMEVERDNLADDLQKLKLRLQEVIHQREEAENNLSAFRADVDSATLARLDLERRIESLQEEITFLKKIHEEEIHELTSQMQETSVQVQMDMSKPDLTVALRDIRMQYEGIAAKNISEAEDWYKSKVSDLNQAVNKNNDALRQAKQESMEFRHQIQSYTCEIDSLKGTNESLLRQMREMEDRLGNEAGGYQDSVTRLEAEIAKMKDEMARHLREYQDLLNVKMALDIEIATYRKLLEGEESRITVSGSKSSHSGSHSAASLYSTVGFRETSPDVGRSAEVHSKKTVLIKTIETRDGEVVSE
modifications: Desmin (fragment)
B3: Alpha-actinin-3 (protein)
chain: MTAIETQVQYGSYMTSEQVYMTQEDDWDRDLLLDPAWEKQQRKTFTAWCNSHLRKAGTQIENIEEDFRNGLKLMLLLEVISGERLPKPDKGKMRFHKIANVNKALDFICSKGVKLVSIGAEEIVDGNVKMTLGMIWTIILRFAIQDISVEETSAKEGLLLWCQRKTAPYRNVNVQNFHISWKDGLALCALIHRHRPDLIDYSKLRKDDPMGNLNTAFEVAEKYLDIPKMLDAEDIVNTPKPDEKAIMTYVSCFYHAFAGAEQAETAANRICKVLAVNQENEKLMEEYEKLASELLEWIRRTIPWLENRVAEQTMRAMQQKLEDFRDYRRVHKPPKVQEKCQLEINFNTLQTKLRLSNRPAFMPSEGKMVSDIANAWKGLEQVEKGYEEWLLTEIRRLERLDHLAEKFKQKSSLHESWTSGKVELLSMKDYESASLMEIRALMRKHEAFESDLAAHQDRVEQIAAIAQELNELDYHDAVTINARCQGICDQWDNLGTLTQKRRDSLERVEKLWETIDQLYLEFAKRAAPFNNWMDGAMEDLQDMFIVHSIEEIQSLITAHDQFKATLPEADKERVATMGIQNEIVKIAQTYGIKLSGVNPYTNLSPQDITDKWDAVKHLVPLRDQMLQEEVARQQSNERLRRQFAAQANIIGPWIQTKMEEISHVSVDIAGSLEEQMSNLKQYEQNIINYKCNIDKLEGDHQLSQESLIFDNKHTNYTMEHVRVGWEQLLTTIARTINEVENQILTRDAKGISQEQLNEFRASFNHFDRKRNGMMDPDDFRACLISMGYDLGEVEFARIMTLVDSNNTGVVTFQAFIDFMTRETAETDTADQVMASFKILASDKTYITVEELRRELPPEQADYCISRMTSYIGSGAPPGALDYISFSSALYGESDL
modifications: PREDICTED: alpha-actinin-3
B4: Alpha-1,4-glucan phosphorylase (protein)
chain: MSKPLSDHDRKKQISVRGLAGVENVAELKVAFNRHLHFTLVKDRNVASKRDYYFALANTVRDHLVGRWIRTQQYYYEKDPKRVYYISLEFYMGRTLQNTMVNLALENACDEAIYQLGLDMEELEDMEEDAGLGNGGLGRLAACFLDSMASLGLAAYGYGIRYEFGIFNQKIVNGWQVEEADDWLRYGNPWEKARPEYMRPVKFYGRTEHTPEGVKWVDTQVVLALPYDTPIPGYRNNIVNTMRLWSAKAPCDFNLKDFNVGGYIQAVLDRNLCENISRVLYPNDNFFEGKELRLKQEYFVVAATLQDIVRRFKASKFGSREIVRTDFAQLPNKVAIQLNDTHPAMAIPELMRVLVDEEKLEWDKAWDVCVRTCAYTNHTVLPEALERWPIDLFHHLLPRHLEIIYEINRRFLQYVASKFPGDNDRLRRMSLIEEGECKKVNMAHMCIVGSHAVNGVARIHSEILVATLFKDFYELDPHKFQNKTNGITPRRWLVMCNPGLAEVIAERIGEEFVRDLDQLKKLLKFIDDDAFIRDIAKVKQENKLKFAVHLEEHYKVKINPQSMFDFQVKRIHEYKRQLLNCLHMITYYNRIKKEPNKHWTPRTIMVGGKAAPGYHTAKMIIRLITAIGEVVNHDPVIGDRLKVIFLENYRVTLAEKAIPSADLSEQISTAGTEASGTGNMKFMLNGALTIGTMDGANVEMAEEAGEKNLFIFGMRVEEVDAMDAGKGYHASEYYNRIPELKQAMDQISGGFFSHKQPDLFKELVDLLMHHDRFKVFADYEAYIKSQDKVNELYKKPKEWTKMVIHNIAGCGKFSSDRTISQYAREIWGMEPSLEKIPAPDEQLK
modifications: Alpha-1,4 glucan phosphorylase
B5: EEF1A2 binding protein-like (protein)
chain: MWKKKSKLTDQTATGQVGIKKRSKVPGVMITQYVEKIPDGKSHPDFTRKPIALTIQEGKFAFFKALVIGDPEPTVTWGRNNGDVSDTSKYVTKYDPATREHLFEMANVKPEQADTYKCFAANEFGRAVVTVVLNVIEVGFKKAQADSQVQPEAAVADFKSVLKRKSKIQPKMEKKEDGEIDPRFWELLISADKKDYESLMLEFGVTDFRFMLKTLNEIKKEREEEQAQFIENLANLKPIEVGPDGCATFSIDMDLIEQSSRIFLYKDGVMIPYSKELGDTIKHSLKIVGRKYQFSIRDLFPDDAGLYQVDVEDVNVFSTDFKIPMVDFLVKIQECKAMEREDAVFECVLSQPFGKIMWVGKNLPLEAGDKYDIEVSEDKLIHRLIIKDVAMVDKGIYAAVAGIKSCNAFLVVEADKGEPGKKKQRKTTRAGGAGVDLTAIAQEQAVKNTADREVLKEKVKAINDERAANATAAPETSAEAKAKVKVVEASQTGAPKQGPAVKGSDHKSVDNEGYSIKSGLSDVFALRGKKGELVCEMSHEVDGAWFKDGEKLSTTDGIAIVKDGTRHTMTIHSSSEDDTGVYHIEAGGFKSEAKVTVGELPAIDADDLHKFSKPVTIKVGQNASWKMPYTPQDNLEVKWFKDGKELKDGGGVKLVKEVKHSRLLLRECLRSDAGEIKIQLKNPFGTIEATSRLIVLDKPGPPEGPVEILETTSTVIELQWGAPKDDGGSPVTNYIIERQQLGQTVWKKMGDVAADKTTYRDRNVVHGKLYIYNIYAVNPEGTSDALQTEETMAGVLIFAGRPGAPKVVSASKTCINLKWEPPEDDGGIKIDGYQLEKRKKDTAQWIALNPVTEPIEVLEYAVKDVVEGAEYEFRVSAINVSGAGEFSLPSVMVTAKNPNMRPTFKDPEDFMVIRAGNSVRIKVLYEAEPPPEITWMKDNEPVSSFIQIINTEGCSQLVIPSTKRSDSGNYTIVAKNKVGEASFDIEVLVTDEPKPPGAVELEQIVHGKVIVSWEASPDQELDNRLYYMVAEHDSSTRMWHTVADRIFDNSYTANNIMPGREYHFKIYAKNDMGMSDPSMSPTWGINSNRIPINTNTPVEVSFEKPPSVLVPLKMHSPPKGFQMYMTCAIRGCPTPSVTWHLNNVCINGDSNYYITNSYGVCSMYILRVRPKDAGEYKVVAVNSFGKAECSTKLVVKD
modifications: EEF1A2 binding protein-like

In the first experiment the test system is IgE antibody in the serum of a fish-allergic patient. Nature of the experiment: Immunoblotting of two-dimensional electrophoresis patterns of fish meat proteins with patient serum. As to conditions: proteins contained in salmon meat; serum from fish-allergic patient 3 (FIG. 1B right). The class given is binding, human. As to the method: Proteins contained in fish were analyzed by the aforementioned technique to identify antigens of an allergy to fish. To be specific, proteins were extracted from fish meat and subjected to two-dimensional electrophoresis under the conditions described below.
The electrophoresis in the first dimension was isoelectric focusing, which was performed using isoelectric focusing gels with a gel-strip length of 5 to 10 cm and a gel pH range of 3 to 10. The pH gradient of the gels in the direction of electrophoresis was as follows: with the total gel-strip length being taken as 1, the gel-strip length up to pH 5 was “a=0.15 to 0.3”, the gel-strip length from pH 5 to 7 was “b=0.4 to 0.7”, and the gel-strip length above pH 7 was “c=0.15 to 0.3”. More specifically, the isoelectric focusing was performed using the IPG gels, Immobiline Drystrip (pH3-10NL), produced by GE Healthcare Bio-Sciences Corporation (hereinafter abbreviated as “GE”). The electrophoresis system used was IPGphor produced by GE. The maximum current of the electrophoresis system was limited to 75 μA per gel strip. The voltage program adopted to perform the first-dimensional isoelectric focusing was as follows: (1) a constant voltage step was performed at a constant voltage of 300 V until the volt-hours reached 750 Vhr (the current variation width during electrophoresis for 30 minutes before the end of this step was 5 μA); (2) the voltage was increased gradually to 1000 V for 300 Vhr; (3) the voltage was further increased gradually to 5000 V for 4500 Vhr; and then (4) the voltage was held at a constant voltage of 5000 V until the total Vhr reached 12000.
The electrophoresis in the second dimension was SDS-PAGE, which was performed using polyacrylamide gels whose gel concentration at the distal end in the direction of electrophoresis was set to 3 to 6% and whose gel concentration at the proximal end was set to a higher value than that at the distal end. More specifically, the SDS-PAGE was performed using NuPAGE 4-12% Bris-Tris Gels (IPG well, Mini, 1 mm) produced by Life Technologies. The electrophoresis system used was XCell SureLock Mini-Cell produced by Life Technologies. The electrophoresis was run at a constant voltage of 200 V for about 45 minutes using an electrophoresis buffer composed of 50 mM MOPS, 50 mM Tris base, 0.1% (w/v) SDS and 1 mM EDTA.
Identification of antigens by immunoblotting was carried out by taking all the steps up to the step of “Second-dimensional SDS-PAGE” as described above in Example 1, followed by the steps of “Transfer to membrane”, “Immunoblotting” and “Analysis” as described below.
To be specific, proteins in the second-dimensional electrophoresis gels were transferred to a membrane (PVDF membrane) according to the following procedure. • (1) The PVDF membrane was immersed in 100% methanol followed by milliQ water, and then moved into the transfer buffer to hydrophilize the PVDF membrane. • (2) After sponge, filter paper, the second-dimensional electrophoresis gels treated by second-dimensional SDS-PAGE, the hydrophilized PVDF membrane, filter paper, and sponge were put in place in this order, the transfer system was energized at a constant voltage of 30 V for one hour. Immunoblotting
Immunoblotting of the membrane was carried out using, as a primary antibody, a serum sample from patient 1 with a fish allergy or a serum sample from a non-fish-allergic subject. This fish-allergic patient 1 was a patient diagnosed with immediate-type allergy to fish. […]
On the technique in general: In western blotting, separated proteins are transferred to a membrane and probed.
As to B1, the “spots detected by immunoblotting, different from spots with serum of non-fish-allergic subject” value was “detected”.
Take B2: the “spots detected by immunoblotting, different from spots with serum of non-fish-allergic subject” value was “detected”.

Staying with this experiment, now noted: spots in two-dimensional electrophoresis gel of proteins in fish; patients diagnosed with immediate-type allergy.
B3: the “specific binding to IgE antibodies from fish-allergic patients” value is “specific binding to IgE antibodies”.
In the case of B4, the “specific binding to IgE antibodies from fish-allergic patients” value was “specific binding to IgE antibodies”.
Same read-out and setting: the result for B1 reads “specific binding to IgE antibodies”; that for B2, “specific binding to IgE antibodies”; that for B5, “specific binding to IgE antibodies”.
